Test results from patent US10227388B2, “Peptides and combination of peptides for use in immunotherapy against non-small cell lung cancer and other cancers” (immatics biotechnologies GmbH, priority 2015, dated 2019).

Biological target: HLA-A*02:01 (Homo sapiens, UniProt P04439, D140Y/D185E/D98H/E176V/E277Q/G131W/G231S/I119V/I121R/I166T/I218V/L300P/L318F/N151K/N90K/P208A/P217A/Q86G/Q94H/R138H/R169H/T345S)
Assay: MHC binding assay (UV-ligand exchange, ELISA, peptide exchange yield)
Settings: binding of HLA-class I restricted peptides to HLA-A*02:01
Summary of the method: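 Exchange yield was quantified as stabilized β2m-containing complex: monomers diluted 100-fold bound to streptavidin-coated wells, probed with HRP-conjugated anti-β2m, read at 450 nm after TMB. Complexes had been generated by UV cleavage of a photolabile ligand and replacement with the candidate peptide.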

Substance | Peptide exchange (MHC class I binding score, peptide exchange yield)
166 (YLNHLEPPV; listed as Homo sapiens) [compound 166] | ″+++″ (≥50% = +++)
18 (YLVAKLVEV; listed as Homo sapiens) [compound 18] | ″++″ (≥20% = ++)
91 (IMQDFPAEIFL; listed as Homo sapiens) [compound 91] | ″++++″ (≥75% = ++++)
250 (ALSEEGLLVYL; listed as Homo sapiens) [compound 250] | ″+++″ (≥50% = +++)
120 (ALLGIPLTLV; listed as Homo sapiens) [compound 120] | ″+++″ (≥50% = +++)
272 (ALGNTVPAV; listed as Homo sapiens) [compound 272] | ″+++″ (≥50% = +++)
7 (SLVGLLLYL; listed as Homo sapiens) [compound 7] | ″++++″ (≥75% = ++++)
214 (FLLDLDPLLL; listed as Homo sapiens) [compound 214] | ″+++″ (≥50% = +++)
121 (GVVDPRAISVL; listed as Homo sapiens) [compound 121] | ″++″ (≥20% = ++)
114 (SLVGEPILQNV; listed as Homo sapiens) [compound 114] | ″++″ (≥20% = ++)
44 (ILDPISSGFLL; listed as Homo sapiens) [compound 44] | ″++″ (≥20% = ++)
148 (ALNPEIVSV; listed as Homo sapiens) [compound 148] | ″++″ (≥20% = ++)
240 (ILLEQAFYL; listed as Homo sapiens) [compound 240] | ″+++″ (≥50% = +++)
82 (FLSSVTYNL; listed as Homo sapiens) [compound 82] | ″+++″ (≥50% = +++)
52 (FLLAHGLGFLL; listed as Homo sapiens) [compound 52] | ″++++″ (≥75% = ++++)
289 (VLLEIEDLQV; listed as Homo sapiens) [compound 289] | ″++++″ (≥75% = ++++)
172 (VLYSYTIITV; listed as Homo sapiens) [compound 172] | ″++″ (≥20% = ++)
256 (FLPPEHTIVYI; listed as Homo sapiens) [compound 256] | ″+++″ (≥50% = +++)

Other lines, results leading:

Peptide exchange (MHC class I binding score, peptide exchange yield) | Substance
″+++″ (≥50% = +++) | 519 (GLLHLTLLL; listed as Homo sapiens) [compound 519]
″+++″ (≥50% = +++) | 479 (SLFGNSGILENV; listed as Homo sapiens) [compound 479]
″+++″ (≥50% = +++) | 297 (VLADIELAQA; listed as Homo sapiens) [compound 297]
″++″ (≥20% = ++) | 372 (TMLLNIPLV; listed as Homo sapiens) [compound 372]
″+++″ (≥50% = +++) | 465 (QLCDLNAEL; listed as Homo sapiens) [compound 465]
″++++″ (≥75% = ++++) | 310 (FLVDTPLARA; listed as Homo sapiens) [compound 310]
″++″ (≥20% = ++) | 510 (KLYSVVSQL; listed as Homo sapiens) [compound 510]
″+++″ (≥50% = +++) | 563 (WLLPYNGVTV; listed as Homo sapiens) [compound 563]
″+++″ (≥50% = +++) | 517 (LLMPIPEGLTL; listed as Homo sapiens) [compound 517]
